The source of these data is article PMC4333214.

For the assay, the target named is FLβ.AP2 (AP2 comprising full-length β2, μ2 and σ2 subunits and the α-trunk domain) (UniProt P63010). The assay is described as follows: co-sedimentation.

Values joined by “and” are separate entries in the source; they are usually repeats but may differ in a detail not shown here. Identical values can stand only once.

Chain of clathrin (Q00610 whole entry, looked up): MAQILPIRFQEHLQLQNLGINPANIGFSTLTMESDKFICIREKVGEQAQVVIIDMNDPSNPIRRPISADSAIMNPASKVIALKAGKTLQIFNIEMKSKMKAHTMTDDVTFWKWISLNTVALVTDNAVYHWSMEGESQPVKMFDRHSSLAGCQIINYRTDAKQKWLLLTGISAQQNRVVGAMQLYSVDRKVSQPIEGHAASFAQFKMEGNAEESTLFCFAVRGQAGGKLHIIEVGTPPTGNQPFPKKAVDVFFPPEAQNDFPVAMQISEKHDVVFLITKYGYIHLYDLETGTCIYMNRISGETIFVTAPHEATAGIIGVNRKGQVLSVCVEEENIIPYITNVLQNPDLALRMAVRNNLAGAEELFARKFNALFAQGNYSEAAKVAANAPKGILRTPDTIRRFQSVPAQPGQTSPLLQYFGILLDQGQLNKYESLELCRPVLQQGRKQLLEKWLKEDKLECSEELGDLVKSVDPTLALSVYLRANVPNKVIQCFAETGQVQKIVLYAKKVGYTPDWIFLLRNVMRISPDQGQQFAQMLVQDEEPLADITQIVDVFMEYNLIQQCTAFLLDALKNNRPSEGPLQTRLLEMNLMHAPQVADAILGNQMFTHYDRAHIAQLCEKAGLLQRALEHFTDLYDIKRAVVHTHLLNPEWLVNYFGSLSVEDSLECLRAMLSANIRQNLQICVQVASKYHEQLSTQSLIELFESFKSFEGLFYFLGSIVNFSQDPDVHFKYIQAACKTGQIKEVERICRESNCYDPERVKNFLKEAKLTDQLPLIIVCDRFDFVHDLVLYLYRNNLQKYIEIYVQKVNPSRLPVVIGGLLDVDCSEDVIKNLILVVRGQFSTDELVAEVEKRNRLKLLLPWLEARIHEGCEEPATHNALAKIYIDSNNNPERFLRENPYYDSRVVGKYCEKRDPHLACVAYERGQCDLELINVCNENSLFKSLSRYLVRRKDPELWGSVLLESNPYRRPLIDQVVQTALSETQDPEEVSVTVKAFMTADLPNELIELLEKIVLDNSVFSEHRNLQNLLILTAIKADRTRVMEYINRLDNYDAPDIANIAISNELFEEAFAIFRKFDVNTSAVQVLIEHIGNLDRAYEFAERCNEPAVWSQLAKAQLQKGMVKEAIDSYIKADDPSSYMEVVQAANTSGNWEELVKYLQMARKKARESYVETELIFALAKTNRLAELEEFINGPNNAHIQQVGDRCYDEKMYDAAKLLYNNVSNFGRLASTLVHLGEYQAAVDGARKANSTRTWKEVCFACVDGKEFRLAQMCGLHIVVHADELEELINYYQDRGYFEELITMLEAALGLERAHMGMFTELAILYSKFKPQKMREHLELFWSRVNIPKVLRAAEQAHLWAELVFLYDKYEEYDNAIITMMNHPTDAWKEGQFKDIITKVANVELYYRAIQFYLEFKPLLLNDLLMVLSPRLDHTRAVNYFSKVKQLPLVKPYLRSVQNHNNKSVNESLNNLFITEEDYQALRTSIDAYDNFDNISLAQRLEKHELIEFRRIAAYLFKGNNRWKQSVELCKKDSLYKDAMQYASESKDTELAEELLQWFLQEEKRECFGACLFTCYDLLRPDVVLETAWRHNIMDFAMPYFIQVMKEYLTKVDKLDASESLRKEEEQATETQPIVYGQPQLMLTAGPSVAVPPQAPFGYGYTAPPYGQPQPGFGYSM

As for “clathrin (from UniProt Q00610 1-1675) (complex)”, the ratio of clathrin to AP2 in the liposome pellets is 26.5% and 5.2%.
